A short description of this data set: yeast display, Sf9 membrane polyspecificity reagent, FACS + sequencing; frameworks hold sequencing errors. The essentials:
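Galactose-induced (36–48 hours) yeast carrying a synthetic nanobody display library were exposed to 10% biotinylated, detergent-solubilized Sf9 membrane reagent at 4 °C for 1 hour. FACS followed streptavidin microbead enrichment, using low and high (top ~1%) gates for expression (anti-HA) and reagent binding (streptavidin). Colony PCR, MiSeq 2 × 250 sequencing and CDR-length filtering followed. Labels for polyreactivity reflect the gate of origin.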
Regarding “QVQLVESGGGLVQAGGSLRLSCAASGSTFTFYFMGWYRQAPGKERELVAAITASGGSTYYADSVKGRFTISRDNAKNTVYLQMNSEKPEDTAVYYCAARPTYYYSRTYDYWGQGTQVTVSS”, the “polyreactivity (PSR sort gate)” value was “low polyreactivity”.

Turning to “QVQLVESGGGLVQAGGSLRLSCAASGNTFDGYDMGWYRQAPGNKRELVAAITNTGASTYYADSVKGRCTISRDNAKNTVYLQMNSLKPEDTAVYYCNAQDSYPEDRHGMSYWGQGTQVTVSS”, the “polyreactivity (PSR sort gate)” value is “low polyreactivity”.

For “QVQLVESGGGLVQAGGSLRLSCDSSGSIFGYYAMGWYRQAPGKERELVAAITSGGNTYYADSVKGRFTISRDNAKNTVYLQMNSLKPEDTAVYYCNAVWRTRDYDYWGQGTQVTVSS”, the “polyreactivity (PSR sort gate)” value is “low polyreactivity”.

Consider “QVQLVESGGGLVQAGGSLRLSCAASGSTFIHNAMGWYRQAPGNERELVAAITSGGSTYYADSVKGRFTISRDNAMNTVYLQMNSLKPEDTAVYYCNRGSWRYSTMEYWGQGTLVTVSS”, for which the “polyreactivity (PSR sort gate)” value is on record as “high polyreactivity”.

In the case of “QVQLVESGGGLVQAGGSLRLSCAASGGIFWYYAMGWYRQAPGNERELVATISTGGSTKYADSVKGRFTISRDNAKNTVYLQMNSLNPDDTAVYYCNKVFPNLYIYVVRGLIEMDYWGQGTQVTVSS”, the “polyreactivity (PSR sort gate)” value is on record as “low polyreactivity”.

For “QVQLVESGGGLVQAGGSLRLSCAASGRIFGGYAMGWYRQAPGKERELVAGIRSGGSTYYADSVKGRFTISRDIAKNTVYLQINSLKPEDTAVYYCNARLYFWNRYTYSQNNYWGQGTQVTVSS”, the “polyreactivity (PSR sort gate)” value is listed as “high polyreactivity”.

As to “QVQLVESGGGLVQAGGSLRLSCAASGSTFVGYAMGWYRQAPGKERELVADIDSIGGSTYYADSVKGRFTISRDNAKNTVYLQMNSLKPEDTAVDYCAARRFDTALVLYDYWGQGTQVTVSS”, the “polyreactivity (PSR sort gate)” value was “low polyreactivity”.

Turning to “QVQLVESGGGLVQAGGSLRLSCAASGRIFDYNAMGWYRQAPGKERELVAAITSAGGTNYADSVKGRFTISRDNAKNTVYLQMNSLKPEDTAVYDCAADGSGYYDWYYYWGQGTQVTVSS”, the “polyreactivity (PSR sort gate)” value was “low polyreactivity”.

For “QVQLVESGGGLVQAGGSLRLSCAASGFTFTYYDMGWYRQAPGKERELDAAISWSGDYTYYADSVKGRFTISRDNAKNTVYLQMNSLKPEDTAVYYCAALWDVRGYWSSGGYYWGQGTQVTVSS”, the “polyreactivity (PSR sort gate)” value is listed as “high polyreactivity”.

As to “QVQLVETGGGLVQAGGILRLSCAASGSTFGYNAMGWYRQAPGKERELVASITWSSGSTYYADSVKGRFTISRDNAKNTVYLQMNSLKPEDSAVYYCYAKRFRHYGGYYYWGQGTQVTVSS”, the “polyreactivity (PSR sort gate)” value was “low polyreactivity”.

With “QVQLVESGGGLVQAGGSLRLSCAASGSTLSENVMGWYRQAPGKERELVATISYSGDSTYYADSVKGRFTISRDNAKNTVYLQMNSLIPEDTAVYYCNADHFVTVGQFDWYDSWGQGTQVTVSS”, the “polyreactivity (PSR sort gate)” value is listed as “low polyreactivity”.

For “QVQLVESGGGLFQAGGSLRVSCAASGITFRDNGMVWYRQAPGKERELVAAITSGGSTYYADSVKGSCTISRDHAKNTVYFQMNSLKPEDTAVYLCAAKRIKRRGWRQLSWYDSWGQGTQVTVSS”, the “polyreactivity (PSR sort gate)” value is recorded as “high polyreactivity”.

Consider “QVQLQESGGGLVQGGGSLRLSCAASGSNYRSWYMGWYRQAPGKERELVASITEGATTNYAYSVKAALPLAAITRNTVYLQMDSMKPEDTAVYYRAASFGSTYDLVYWGQGTQVTVSS”, for which the “polyreactivity (PSR sort gate)” value is “high polyreactivity”.

As to “QVHLVESGGGLVQEGGSLRLSCPACGSTIRGNAMGWYRQAPGKERELVADITRNGGRTYYADSVKGRFTISRDNAKNNVYLQMNSLKPEDTAVYYCAKRDAYCVTQRNMDYWGQGTQVTVSS”, the “polyreactivity (PSR sort gate)” value is recorded as “high polyreactivity”.

For the sequence “QVQLVESGGGLVQAGGSLRLSCAASGSTFAYNAMGWYRQAPGKERELVAAISWGDGITYYADSVKGRFTISRDNAKNTVYLQMNSLKPEDTEVITRDFGYWGQGTQVTVSS”, the “polyreactivity (PSR sort gate)” value was “low polyreactivity”.

“QVQLVESGGGLVQAGGSLRLSCAASGSIFTYNAMGWYRKAPGKERELVAVISWSGGSTYYADSVKGRFTISRDNAKNTVYLQMNSLKPEDTAVYYCNSDYYRPYGNKYGYWGQGTQVTVSS”: the “polyreactivity (PSR sort gate)” value is recorded as “high polyreactivity”.

Consider “QVQLVESGGGLVQAGGSLRLSCAASGLTFTSYVMGWYRQAPGKERELVAAIRWSGGRTYYADSVKGRFTISRDNAKNTVYLQMNSLKPEDTAVYYCAAQWYSGSHGYYYWGQGTQVTVSS”, for which the “polyreactivity (PSR sort gate)” value is “high polyreactivity”.

Consider “QVQLVESGGGLDQAGGSLRLSCAASGYTYLRNAMGWSRQAPGKERELVAAISYSGGGTYYADSVKGRFTISRDNAKNTVYLQMHSLKPEDTAVYYCAADRGGLRWFWQVLYDYWGQGTQVTVSS”, for which the “polyreactivity (PSR sort gate)” value is “low polyreactivity”.

For the sequence “QVQLVESGGGLVQAGGSLRLSCAASGITFYDYDMGWYRQAPGKERELVAAINSGASTSYADSVKGRFTISRDNAKNTVYLQMNSLKPEDTAVYYCNADVRVDYLSGDLDYWGQGTQVTVSS”, the “polyreactivity (PSR sort gate)” value was “low polyreactivity”.

Take “QVQLVESGGGLVQAGGSLRLSCAASGRTFTAYAMGWYRQAPGKERELVAAITSGGSTYYADSVKGRFTISRDNAKNTVYLQMNSLKPEDTAVYYCATDLYSFYWPEYEYWGQGTQVTVSS”: the “polyreactivity (PSR sort gate)” value is recorded as “low polyreactivity”.

As to “QVQLVESGGGLVQAGGSLRLSCAASGIIFSGYVMGWYRQAPGKERELVAAISSGGSTYYADSVKGRFTISRDNAKNTVYLQMNSLKPEDTAVYYCAAAGYWTLGYGYWGQGTQVTVSS”, the “polyreactivity (PSR sort gate)” value is reported as “low polyreactivity”.

Turning to “QVQLVESRGGLVQAGGSLRLSCAASGIIFYQYAMGWYRQAPGKERELVAAITRSGGSTYFADSVKGRFTISRDNAKNTVYLQMKSLKPEDTAVYYCAARPFHSGYEGYGYWGQGTQVTVSS”, the “polyreactivity (PSR sort gate)” value was “high polyreactivity”.

Regarding “QVQLVESGGGLVQAGGSLRLSCAASGSTFQVYAKGWYRQAPGKERELVAAIDSGVSTYYADSVKGLFTFSRDNAKNTVYLQMNSLKPEDTAVYYWYGYDYWGQGTQVTVSS”, the “polyreactivity (PSR sort gate)” value was “low polyreactivity”.

With “QVQLVESGGGLVQAGGSLRLSCAASGFTFPYYAMGRYRQAPGKERELVAAITRSGGSTNYADSVKGRFTISRDNAKNTVYLQMNSLKPEDTAVYYCNAPPGYSSTRNGYWGQGTQVTVSS”, the “polyreactivity (PSR sort gate)” value is listed as “high polyreactivity”.

As to “QVQIVESGGGLIQEGGSLRLSCAASGSTFYYYAMGWYRPAPGKERELVAAIDRDDRTNYADSVKGRFTSSRDNAQNTVYLQMTSLKPEDTAVYYCAAVEIYEYDYWGQGTQVTVSS”, the “polyreactivity (PSR sort gate)” value was “low polyreactivity”.

Turning to “QDQPVESGGGLVQAGGSLRLSCDDSGFTFVYYAMGWYRQAPGQERELVAAISTGGSTYYADSVKWRFTISRDNAKNTVYLQMNSLKPEDTAVYYCNAVYTYRWRFNYWGQGTQVTVSS”, the “polyreactivity (PSR sort gate)” value was “high polyreactivity”.

With “QVQLVESGGGLVQAGGSLRLSCAASGRIFYRYAMGWYIQAPWKERELVASISLSGDSTYYADSVKGRFTISRDNAKNTVYLQMNSLKREDTAFYYCDVEGLGAAVYAGDRYDYWGQGTQVTVSS”, the “polyreactivity (PSR sort gate)” value is recorded as “low polyreactivity”.

With “QVQLVESGGGLVQAGGSLRLSCAASGFTFVRYTMGWYRQAPGKERELVAAITSGGSTTYADSVKGRFTISRDNAKNTVYLQMNSLKPEDTAVYYCNAVFYLQYETGRELDYWGQGTQVTVSS”, the “polyreactivity (PSR sort gate)” value was “high polyreactivity”.

Turning to “QVQLVESGGGLVQAGGSLRLSCAASGRTSIPYARGWYRQAPGKERELVAAISYSVGRTYYADSVKGRFTISRDNAKNTVYLQMNSLKPEDTAVYYCAAEYNGVVRDYDYWGQGTQVTVSS”, the “polyreactivity (PSR sort gate)” value is recorded as “low polyreactivity”.

As to “QVQLVESGGGLVQAGRSLRLICAASGSTFVIYDMVWYRQAPGKERELVAAISYSGGSTYYADSVKGRFKISRDNAKNTVYLEMNSLKPEDTAVYYCNAGVLVLLYSYLQSELEYWGQGTQVTVSS”, the “polyreactivity (PSR sort gate)” value is listed as “low polyreactivity”.

On to “QVQLVESGGGLVQAGGSLRLSCAASGSTFAYNAMGWYRQAPGKERELVARISSSGDITYYADSVKGRFTISRDNAKNTVYLQMNSLKPEDTAVYYCAKRYLTRYKGYYYWGQGTQVTVSS”, for which the “polyreactivity (PSR sort gate)” value was “high polyreactivity”.

For “QVQLVESGGGLVQAGGSLRLSCAASGIIFWYYAMVWYRHAPGKERELVASISGTGGTTYYADSVKGRFTISRDNAKNTVYLQMNSLKPEDTAVYDCSALSGQHDYDYWGQGTQVTVSS”, the “polyreactivity (PSR sort gate)” value was “low polyreactivity”.

Consider “QVQLVESGGGLVQAGGSLRLSCAASGSTFRYYVMGWYRTAPGKERDLVAVISGSGGYTYYADSVKGRFTISRDNAKNTVYLQMNSLKPEDTAVYYCAAARKFIPGRGRTYDSWGQGTQVTVSS”, for which the “polyreactivity (PSR sort gate)” value is given as “high polyreactivity”.

Regarding “QVQLVESGGGLVQAGGSLRLSCAASGSIIPRNAMGWYRQAPGKEMELVAAIRKSGGSTYYADSVKGRFTFCRDIAKNTVYLQMNSLKPEDTAVYYCAKPYYVPSWLSPIYNYWGQGTQVTESS”, the “polyreactivity (PSR sort gate)” value is “low polyreactivity”.

As for “QVQLVESGGGLVQEGGSLRLSCAASGRNFDVNAMGWYRQAPGKERELDAAISSGGNTKYSDSVKGRFTISRDKSKNTVYLQMNSLKPVDSAVYYCKADGKAGGDYDYWVQGTQVTVSS”, the “polyreactivity (PSR sort gate)” value is on record as “low polyreactivity”.

As to “HVQLVESGGGLVQAGGSLRISCAASGRIFSTYTMGWYRQAPGKERELVAAIRANCGSTYYADSVKGRFTISRDNAKNTVYLQMNSLKPEDTAVYYCAALYRRYPYHYDSWGQGTQVTVSS”, the “polyreactivity (PSR sort gate)” value is given as “high polyreactivity”.

For the sequence “QVQLAESGGGLVQAGGSLRLSCAASGSIFWGNAMGWYRQATGKERELVAAIDWSGGSTYYADSVKGRFTISRDNGKNTVYLQMNSLKAEDTAVYYCAASGRYDYDYWGQGTQVTVSS”, the “polyreactivity (PSR sort gate)” value is on record as “low polyreactivity”.

Take “QVQLVESGGGLVQAGGSLRLSCAASGRIFPYYAMGWYRQAPGKERELVATITWRGGITYYADSVKGRFTISRDNAKNTVYLQMNSLKPEDTAVYYCAVRKVYRSSFDYWGQGTQVTVSS”: the “polyreactivity (PSR sort gate)” value is on record as “high polyreactivity”.

For the sequence “QVQLVESGGGLVQAGGSLRLSCAASGSSFYSNAMGWYRQAPGKERELVAAISSSGGSTYYADSVKGRFTISRDNAKNTVYLQMNSLKPEDTAVYYCAAYSYYPPYDYWGQGTQVTVSS”, the “polyreactivity (PSR sort gate)” value is “high polyreactivity”.

As to “QVQLVESGGGLFQAGGSLRLSCAASGRTFRTNAMGWYRQAPGKERELVAAITRSGGSTYADSVKGRFTISRDNAKNTVYLQMNSLKPEDTAVYYCATTRDWVYNYWGQGTQVTVSS”, the “polyreactivity (PSR sort gate)” value is “low polyreactivity”.

For “QVQLVESGVGLVQAGGSHRLSCAASGSILAGNVMGWYRQAPGKERELVAAITRSGTSTYYADSVKGRFTISRDNAKNTVYLQMNSLKPEDTAVYYCNSVRRVGFRGRYTDGYWGQGTQVTVSS”, the “polyreactivity (PSR sort gate)” value was “high polyreactivity”.

The values above are taken from the nanobody polyreactivity screen of Harvey et al. (2022).
